Results from US20210188989A1 (SYSTIMMUNE, published 2021).

T1: recombinant cynomolgus 4-1BB extracellular domain protein (cynomolgus, UniProt A9YYE7 24-186)
T1 construct: Analyte in the Octet assay
T1 sequence: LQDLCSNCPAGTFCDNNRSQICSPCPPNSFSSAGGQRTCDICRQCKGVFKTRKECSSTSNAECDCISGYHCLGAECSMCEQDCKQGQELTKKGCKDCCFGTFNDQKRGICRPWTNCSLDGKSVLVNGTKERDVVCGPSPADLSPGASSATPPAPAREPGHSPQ

B1: 413F3 (antibody, human IgG1, kappa, V domains shown)
VH: QSLEESGGDLVKPEGSLTLTCTGSGIDFSSNYMCWVRQAPGKGLEWIACIYGDSSDNSYSASWAKGRFTISKTSSTTVTLQMTSLTAADTATYFCARSGYSYLGYFNLWGPGTLVTVSS
VL: DVVMTQTPASVEAAVGGTVTIKCQASQSIYSNLAWYQQKPGQPPKLLIYSTSTLASGVPSRFSGSGSGTEFTLTISDLECADAATYYCQNYYGSSTDSYGNPFGGGTEVVFKR
notes: one of the 34 chimeric antibodies; rabbit variable regions on human IgG1 and human kappa; also called 413F3 chimeric rabbit/human IgG
B2: 472E4 (antibody, human IgG1, kappa, V domains shown)
VH: QSLEESGGRLVTPGGSLTLTCTVSGFSLNNNAISWVRQAPGKGLEWVAIIQNTGTTDYARWAKGRFTISKTSTTVDLKINSPTTEDTATYFCGRGYGFESELVIWGPGTLVTVSS
VL: AAVLTQTPSSTSAAVGGTVTISCQSSQSVYNNNALAWYQKKPGQPPKLLIYLASTLASGVPSRFSGSGSGTQFTLTISDLECDDAATYYCLGVYNDDVDNGFGGGTEVVFKR
notes: one of the 34 chimeric antibodies; rabbit variable regions on human IgG1 and human kappa; also called 472E4 chimeric rabbit/human IgG
B3: 418H5 (antibody, human IgG1, kappa, V domains shown)
VH: QSLEESGGRLVTPGTPLTLTCTVSGIDLSAYHMSWVRQAPGKGLEYIGMIGSSGTIHYANWAKGRFTISKTSTTVDLKITSPTTEDTATYFCARDSYNSDYAFNLWGPGTLVTVSS
VL: AQVLTQTPASVSATVGSTVTISCQSSPSVYKNNQLAWYQQKPGQPPKLLIYLASTLASGVPSRFKGSGSGTEFTLTISDLECADAATYYCAGGYSSSSDTAFGGGTEVEVKR
notes: one of the 34 chimeric antibodies; rabbit variable regions on human IgG1 and human kappa; also called 418H5 chimeric rabbit/human IgG
B4: 420H5 (antibody, human IgG1, kappa, V domains shown)
VH: QSLEESGGDLVKPGASLTLTCTASGFSFSSNYWICWVRQAPGKGLEWIACIYVGSSGDTYYASWAKGRFTISKTSSTTVTLQMTSLTAADTATYFCARDSSSYYMFNLWGQGTLVTVSS
VL: ALVMTQTPASVSAAVGGTVTINCQASEDIDTYLAWYQQKPGQPPKLLIFYASDLASGVPSRFKGSGSGTEFTLTISGVQCDDAATYYCQGGYYTSSADTRGAFGGGTEVVVKR
notes: one of the 34 chimeric antibodies; rabbit variable regions on human IgG1 and human kappa; also called 420H5 chimeric rabbit/human IgG
B5: 470C6 (antibody, human IgG1, kappa, V domains shown)
VH: QSLEEAGGDLVKPGASLTLTCTASGFSFTSSYYMCWVRQAPGKGLEWIACIYTGSSGSTYYANWAKGRFTISKTSSTTVTLQMTSLTAADTATYFCARDSSSYYMFNLWGQGTLVTVSS
VL: ALVMTQTPASVSAAVGGTVTINCQASEDIDNYLAWYQQKPGQPPKLLIFYASDLASGVPSRFSGSGSGTQFTLTISGVQCDDAATYYCQGGYYTSSTDTRGAFGGGTEVVVKR
notes: one of the 34 chimeric antibodies; rabbit variable regions on human IgG1 and human kappa; also called 470C6 chimeric rabbit/human IgG
B6: 466F6 (antibody, human IgG1, kappa, V domains shown)
VH: RSLEESGGRLVTPGTPLTLTCTASGFTISSYHMQWVRQAPGKGLEYIGTISSGGNVYYASWARGRFTISRPSSTTVDLKMTSLTTEDTATYFCARDSGYSDPMWGPGTLVTVSS
VL: DVVMTQTPASVSEPVGGTVTIKCQASQNIRTYLSWYQQKPGQRPKLLIYAAANLASGVPSRFSGSRSGTEFTLTISDLECADAATYYCQCTYLGTDYVGGAFGGGTEVEFKR
notes: one of the 34 chimeric antibodies; rabbit variable regions on human IgG1 and human kappa; also called 466F6 chimeric rabbit/human IgG
B7: 419D9 (antibody, human IgG1, kappa, V domains shown)
VH: QSLEESGGDLVKPGASLTLTCTASGFSFSSRHYMCWVRQAPGEGLEWIACIYTGSSGTPHYASWAKGRFTISQTSSTTVTLQMTSLTAADTATYFCSSEGNLWGPGTLVTVSS
VL: AQVLTQTASPVSAAVGGTVTINCQSSQSVYSNWLSWYQQKPGQPPKRLIYSASTLASGVPSRFKGSGSGTQFTLTISDLECDDAATYYCAGGYNTVTDTFAFGRGTEVEVKR
notes: one of the 34 chimeric antibodies; rabbit variable regions on human IgG1 and human kappa; also called 419D9 chimeric rabbit/human IgG
B8: 420H6 (antibody, human IgG1, kappa, V domains shown)
VH: QQQLEESGGGLVKPGGTLTLTCKASGIDFSSSYYMCWVRQAPGEGLEWIACIYTGGSGTPHYASWAKGRFTISQTSSTTVTLQMTSLTAADTATYFCAREGSLWGQGTLVTVSS
VL: AQVLTQTASPVSAAVGGTVTINCQASQSVYSNWLSWYQQKPGQPPKRLIYSASTLASGVPSRFKGSGSGTQFTLTISDLECDDAATYYCAGGYNTVIDTFAFGGGTEVEFKR
notes: one of the 34 chimeric antibodies; rabbit variable regions on human IgG1 and human kappa; also called 420H6 chimeric rabbit/human IgG
B9: 459F1 (antibody, human IgG1, kappa, V domains shown)
VH: ESLEESGGDLVKPGASLTLTCTASGIDFSRRYYMCWVRQAPGKGLEWIACMYTGSRDTPHYASWAKGRFTISQTSSTTVTLQMTSLTAADTATYFCAREGNLWGPGTLVTVSS
VL: AQVLTQTASPVSAAVGGTVTINCQSSQSVYSNWFSWYQQKPGQPPKLLIYSASTLASGVPSRFKGSGSGTQFTLTISDLECDDAATYYCAGGYNTVTDTFAFGGGTEVEFKR
notes: one of the 34 chimeric antibodies; rabbit variable regions on human IgG1 and human kappa; also called 459F1 chimeric rabbit/human IgG
B10: 460C3 (antibody, human IgG1, kappa, V domains shown)
VH: QSLEESGGDLVKPGASLTLTCTASGIDFSRRYYMCWVRQAPGKGLEWIACIYTGSRDTPHYASWAKGRFTISQTSSTTVTLQMTSLTAADTATYFCAREGSLWGQGTLVTVSS
VL: AQVLTQTPSSVSAAVGGTVSISCQSSQSVYSNWFSWYQQKPGQPPKLLIYSASTLASGVPSRFKGSGSGTQFTLTISDLECDDAATYYCAGGYNTVIDTFAFGGGTEVEFKR
notes: one of the 34 chimeric antibodies; rabbit variable regions on human IgG1 and human kappa; also called 460C3 chimeric rabbit/human IgG
B11: 416F8 (antibody, human IgG1, kappa, V domains shown)
VH: QSLEESGGRLVTPGTPLTLTCTASGFSLSNYYMNWVRQAPGKGLEYIGIISSSGSAYYASWAKGRFTISRTSTTVDLRITSPTTEDTATYFCARGDYGMDLWGQGTLVTVSS
VL: AQVLTQTASSVSAPVGGTVTISCQSSQTVYNNNLLSWYQQKPGQRPKLLIYYASTLAFGVPSRFKGSGSGTEFTLTISDLECDDAATYFCQGGYSGWIYVFGGGTEVEVKR
notes: one of the 34 chimeric antibodies; rabbit variable regions on human IgG1 and human kappa; also called 416F8 chimeric rabbit/human IgG
B12: 418E10 (antibody, human IgG1, kappa, V domains shown)
VH: QSLEESGGRLVTPGTPLTLTCTASDFSLSTYYMSWVRQAPGKGLEWIGSIYDSGAAYYATWAKGRFTISRTSTTVDLRMTSLTAADTATYFCARDPINNAIWGQGTLVTVSS
VL: ALVMTQTPSPVSAAVGGTVTINCQASQSIGSNLNWYQQKPGQPPKLLIYYVSTLASGVPSRFKGSGSGTEYTLTISGVQCDDAATYYCLGVWNYWGDDGTAFGGGTEVEVKR
notes: one of the 34 chimeric antibodies; rabbit variable regions on human IgG1 and human kappa; also called 418E10 chimeric rabbit/human IgG
B13: 418E4 (antibody, human IgG1, kappa, V domains shown)
VH: QSLEESGGRLVTPGTPLTLTCTASEFSLSSYYMSWVRQAPGKGLEWIGSIYASGSAYYASWAKGRFTISRTSTTVDLKMTSLTAADTATYFCVRDPINNDIWGPGTLVTVSS
VL: ALVMTQTPSPVSAAVGGTVTINCQASQSIATNLNWYQQKPGQPPKLLIYYTSSLASGVPSRFSGSGSGTEFTLTISGVQCDDAATYYCLGVWNYWGDDGTAFGGGTEVEFKR
notes: one of the 34 chimeric antibodies; rabbit variable regions on human IgG1 and human kappa; also called 418E4 chimeric rabbit/human IgG
B14: 416G1 (antibody, human IgG1, kappa, V domains shown)
VH: QSVEESGGRLVTPGTPLTLTCTVSGFTINSYHMIWVRQAPGEGLEYIGFINDGGFTYYASWAKGRFIISRTSTTVDLKMTSLTVADTATYFCARGVDGTSYPDLWGPGTLVTVSS
VL: DVVMTQTPASVSEPVGGAVTIKCQASQSIGSDLAWYQQKPGQPPKLLIYRASTLASGVSSRFKGSGSGTEFTLTISDLECADAATYYCQCIYYGSDDVIYHTFGGGTEVVVKR
notes: one of the 34 chimeric antibodies; rabbit variable regions on human IgG1 and human kappa; also called 416G1 chimeric rabbit/human IgG
B15: 411H11 (antibody, human IgG1, kappa, V domains shown)
VH: QSVEESGGRLVTPGTPLTLTCTVSGFTISSHHMIWVRQAPGEGLQYIGFINDGDYTYYTNWAKGRFTISRTSTTVDLKMTSLTAADTATYFCARGVDGTSYPGLWGPGTLVTVSS
VL: DVVMTQTPASVSEPVRATVTIKCQASQSIGADLAWYQQKPGQPPKLLIYRASTLASGVPSRFSGSGSGTEFTLTISDLECADAATYYCQCIYYGTDDVIYHTFGGGTEVVFKR
notes: one of the 34 chimeric antibodies; rabbit variable regions on human IgG1 and human kappa; also called 411H11 chimeric rabbit/human IgG

Assays:
[1] = target: T1, recombinant cynomolgus 4-1BB …; assay: Octet BLI; chimeric IgG from transfection supernatant on anti-human Fc biosensor; recombinant cynomolgus 41BB; column kdis(1/s) Cynomolgus
Text: (§1) The heavy and light chain expression plasmids generated from each well were transiently co-transfected to produce rabbit/human chimeric antibodies. Recombinant antibody supernatants were confirmed to contain antibodies specific for human and cynomolgus 4-1BB using bio-layer interferometry analysis on a ForteBio Octet Red 96 instrument. Anti-human Fc biosensors (Pall ForteBio) were used to capture antibodies in the supernatants. Association to human or cynomolgus 4-1BB was observed by real-time interferometry by placing the biosensors in wells containing recombinant human or cynomolgus 4-1BB extracellular domain protein. Dissociation was measured after transfer of the biosensors into wells containing 10× kinetics buffer (Pall ForteBio). The software provided by the manufacturer was used to analyze the interferometry data. A summary of the primary BCC screening data and the corresponding screening data for 34 recombinant chimeric rabbit/human IgG antibodies is shown in FIG. 2.

[2] = target: T2, recombinant human 4-1BB extracellular domain protein (human, UniProt Q07011 24-186); assay: Octet BLI; chimeric IgG from transfection supernatant on anti-human Fc biosensor; recombinant human 41BB; column kdis(1/s) Human
T2 construct: extracellular domain; Analyte in the Octet assay; also called CD137; TNFRSF9
Text: as §1

Row | Binder | koff [1] [s⁻¹] | koff [2] [s⁻¹]
1 | B1 | 0.00079 | 0.00054
2 | B2 | 0.0018 | 0.0011
3 | B3 | 0.0016 | 0.0014
4 | B4 | 0.0023 | 0.0013
5 | B5 | 0.0014 | 0.001
6 | B6 | 0.0026 | 0.0021
7 | B7 | 0.0014 | 0.00063
8 | B8 | 0.002 | 0.00094
9 | B9 | 0.0075 | 0.00075
10 | B10 | 0.0041 | 0.00067
11 | B11 | 0.003 | 0.0043
12 | B12 | 0.0015 | 0.0011
13 | B13 | 0.005 | 0.0036
14 | B14 | 0.0019 | 0.0014
15 | B15 | 0.0015 | 0.001
